# Measurements published in the supplement of paper PMC12042874.
# ± gives the uncertainty stated by the source.
# Experiment: amyloid nucleation score (Sup35N fusion, yeast selection) (log enrichment); library NNK2; higher = more nucleation; inactive = no reads after selection
# Outline: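 On medium lacking adenine and uracil, psi-negative yeast expressing peptides of 20 random codons fused to Sup35N were grown 7 days at 30°C after a 24-hour induction with 100 μM copper sulfate. Illumina sequencing of input and output plasmid inserts gave the reads, and sequences under 100 input reads were excluded. The nucleation score is the DiMSum log enrichment of output over input reads, centred on the mode score of non-aggregating sequences.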
row,Substance,amyloid nucleation score
1,TVLPAVCYGVLNSRFRVTME,inactive
2,TVMCLNLLR,6.454 ± 0.026
3,TVMLCSMISYKAVLVTYVGG,1.87 ± 0.13
4,TVMYSGVG,0.501 ± 0.46
5,TVRANLKTRCMSRTTNQEHT,1.85 ± 0.15
6,TVRFVRFYSPLWLSVTYRLT,0.412 ± 0.55
7,TVRVST,-0.004 ± 0.36
8,TVSRIMLGNGKYFKHVL,2.3 ± 0.064
9,TVWCWVDRTMGLEWTYLTA,1.1 ± 0.23
10,TVYPCMYGGLGHRERHLSMS,5.06 ± 0.063
11,TVYSHEKGVQLWFLLIVALL,0.27 ± 0.48
12,TWFAHQMWCFSILQFITLKS,0.867 ± 0.32
13,TWNISILHCI,4.84 ± 0.084
14,TWQTLYASSVFFANPVEHPL,0.068 ± 0.29
15,TWRFYTFLFEVFRRSEILKR,-0.97 ± 1.1
16,TWRLKVVGQRQTFSKFTGLG,-0.133 ± 0.35
17,TWRYHFADVGSILDLVG,-0.277 ± 0.4
18,TWSIYAHH,0.952 ± 0.58
19,TYGGEV,0.251 ± 0.31
20,TYIQPVARRKHLA,0.101 ± 0.39
21,TYKCLTRATKGRNHVFRFCV,1.08 ± 0.15
22,TYKTGDACVLVLPPHMADPR,-0.446 ± 1.1

row,Substance,amyloid nucleation score
1,TYLRSPLLLNAVSVNT,0.082 ± 0.65
2,TYMRGSLSEIGGTLL,1.06 ± 0.19
3,TYPRDYVVRSEI,0.74 ± 0.43
4,TYRSEYCICLLLSAFFQMKG,-1.08 ± 1.1
5,TYVDTVFSGSGCYLLYKGWI,0.851 ± 0.57
6,TYVLWSFTKYRPP,1.02 ± 0.66
7,VAFFWIKFH,-0.807 ± 1
8,VAFGLMDQDIFSRRILTRSS,inactive
9,VAFNCNIEIISPAGDGETFV,-0.489 ± 0.27
10,VALRWTIRQWFSDVYPWSWY,0.802 ± 0.45
11,VAQVWLSNVVMYLRRAENLT,0.214 ± 0.26
12,VARRGALNVRHFFPGKREV,0.608 ± 0.47
13,VAVDLRGIDGNIYAFQAKIE,2.97 ± 0.068
14,VAWLW,0.909 ± 0.21
15,VCACKIYKRHTLGSR,-0.573 ± 0.76
16,VCCKLEFVSKHFRCVNGCDE,9.264 ± 0.055
17,VCFYPECVWQSILVLDFHVG,3.42 ± 0.079
18,VCHAGTWLQSGRTRYSIVRN,3.51 ± 0.12
19,VCKMSSLNLCKRP,-0.133 ± 1
20,VCNFLYNGLEFVNLECFWR,inactive
21,VCQVFVNGVSSDRVAVLVVI,5.25 ± 0.059
22,VCRLFLYGQWLVGRRANSYS,-0.731 ± 0.39

row,Substance,amyloid nucleation score
1,VCSFVCNLCSLCEIEFWLIA,0.521 ± 0.26
2,VCTNFWELMVWAQQLLFCKL,inactive
3,VCVRTTWRKDGSISCTHKSP,0.5 ± 0.18
4,VDAFLWHVDVHMFIEVGVRW,-0.024 ± 0.65
5,VDARALDMIVVRDQTFRCTM,1.24 ± 0.33
6,VDHYTETTRL,0.493 ± 0.24
7,VDIFMFKAAHIRAKGNVVGL,-0.429 ± 0.45
8,VDKLGKLEVYSWLYWV,-1.86 ± 0.55
9,VDLYQVWSSCPVFVLWGYSC,0.072 ± 0.79
10,VDMTGCLTGVDVTSLRNIPL,0.931 ± 0.38
11,VDQCPYRFKFRVSYMMVFYM,5.67 ± 0.086
12,VDVPMNMIRWSQCNQ,1.22 ± 0.59
13,VDVRMDEWVDRTAFAWMMRV,0.875 ± 0.43
14,VDYKSFRNYTFMDHYCSPYN,1.08 ± 0.18
15,VEDDDN,-0.2 ± 0.63
16,VEFLPCLSIYSACFSLDGST,-1.37 ± 0.44
17,VEFTRVGVRLSHDVPVHDRW,3.95 ± 0.066
18,VEFYCSTERCLYDFTNG,-2.3 ± 0.75
19,VEGVFLISMPPWPFYRLPSR,0.961 ± 0.81
20,VEMKGRWLIVNRRLGVSPQA,0.097 ± 0.35
21,VEVSECVHVIMYFRISYNKL,3.4 ± 0.15
22,VEWEVMGVPDSKLDRGTGTV,1.09 ± 0.53

row,Substance,amyloid nucleation score
1,VFAYIHFVTLGGCLLGF,1.3 ± 0.47
2,VFERDMLNWVSLSLDHCWCS,1.31 ± 0.36
3,VFFNYSNCLGLA,inactive
4,VFGKGQWVDLIRRREDVYTN,-0.759 ± 1.1
5,VFGPPWCLGHSHWILFYVGC,-0.519 ± 1
6,VFIVL,1.65 ± 0.41
7,VFLACNDCLCVWLSVEVTSE,inactive
8,VFNWTNLHYLMAQESVMGY,0.148 ± 0.35
9,VFQQFNS,0.244 ± 0.62
10,VFRISLRSSLYML,4.13 ± 0.099
11,VFSCYSVQHRRLSWMSCD,-0.385 ± 0.41
12,VFSLCGIYMRGHYSYWCYNK,inactive
13,VFTGNLICYMDGGTGFSCFQ,9.018 ± 0.029
14,VFVRRVGPQLFDPRSSNGVD,0.951 ± 0.81
15,VFWNIAFNSYMQRSCYIVVF,2.12 ± 0.14
16,VFYSWKKLVSVLTSRYGFHV,-0.965 ± 0.78
17,VGCCVQGNLYSSFLAMFVA,7.352 ± 0.028
18,VGCFTRSIGHAM,0.257 ± 0.23
19,VGDQF,inactive
20,VGFLW,2.22 ± 0.13
